The target of data set [1] is TbMORN1(10–15) (Trypanosoma brucei brucei strain Lister 427). The data set can be described thus: SEC-MALS; Superdex 200 Increase 10/300 GL; 20 mM Tris-HCl pH 8.5, 200 mM NaCl, 2% (w/v) glycerol, 0.5 mM DTT; 100 μl of 2–4 mg/ml protein applied. Background: Size exclusion chromatography separates by hydrodynamic size, large species first.
The target in data set [2] is TbMORN1(2–15) (Trypanosoma brucei brucei strain Lister 427). The description is as above.
Data set [3] has as its target TbMORN1(7–15) (Trypanosoma brucei brucei strain Lister 427). The description is as above.
Data set [4] deals with the molecule itself. The data set can be described thus: crystal structure; sitting-drop vapour diffusion at 22°C; TbMORN1(7–15) in forms P21 and C2 and TgMORN1(7–15) in P43212 as extended dimers; PfMORN1(7–15) in C2221 as a V-shaped dimer with Zn2+.

The values that follow come from paper PMC7725318, “Structures of three MORN repeat proteins and a re-evaluation of the proposed lipid-binding properties of MORN repeats” (PLoS ONE, 2020).

As to TbMORN1(10–15) (domain or fragment), the stoichiometry N – broadly, the number of molecules, sites or subunits per partner or assembly – in data set [1] came to 2.

As for TbMORN1(2–15) (domain or fragment), the stoichiometry N in data set [2] came out at 2.

As to TbMORN1(7–15) (domain or fragment), the stoichiometry N in data set [3] came out at 2.

B1: TgMORN1(7–15) (domain or fragment, Toxoplasma gondii)
chain: EKYEGDWVNGKMHGHGKYIYSDGGVYEGDWIDGKMHGKGTYVFPNGNVYEGEWAHDMKDGYGVLTYQNGEKYEGYWKQDKVHGKGTLTYTRGDKYIGDWMDAKKDGEGELIYANGDRFKGQWADDRANGFGVFTYANGNRYEGEWTDDKRHGRGVFYCAEDGSAYEGEFVGGRKEGNGILRLATGHQLEGTWSGGQLVRVTSFVFAQDSPWLNVDL
notes: TgMORN1, Toxoplasma gondii (1092 bp open reading frame), MORN repeats 7–15; also called Toxoplasma gondii MORN1(7–15); source: E. coli Rosetta 2 (DE3)pLysS, purified; not shown: His10, N-terminal, cleaved
As for B1, the binding result in data set [4] was “binds”.
